Target: STARD1^S195E mutant (human StAR domain, residues 66-285) (human) (UniProt P49675)
Test: SEC

fraction of dimers: < 3%
Substance: STARD1^S195E mutant (human StAR domain, residues 66-285) (from UniProt P49675 66-285) (domain or fragment)

Reference: paper doi:10.1101/116368
